Source: IntAct's records for PubMed 20181956

B1: Trinucleotide repeat-containing gene 6C protein (Homo sapiens), Q9HCJ0 (parent)
chain: MEEKKKKKQEEKKKKEGAQKKAADQKTKVPEPTKTCSSQPQPAGTSTSTSTSTISSSNNGKRASASGQQPAASRYLPREVPPRFRQQEQKQLLKRGQPLPTGTLTSVSPTQGAGPAGVSPPPLPGAGTQHHPSKLQPDLSHSGLADHYENSHWGQQPTYRSEANCSWDKVIIDRTDKEAWPSITGTETESASECTTDTDSASNCGSENSSMATGSAQGNFTGHTKKTNGNNGTNGALVQSPSNQSALGAGGANSNGSAARVWGVATGSSSGLAHCSVSGGDGKMDTMIGDGRSQNCWGASNSNAGINLNLNPNANPAAWPVLGHEGTVATGNPSSICSPVSAIGQNMGNQNGNPTGTLGAWGNLLPQESTEPQTSTSQNVSFSAQPQNLNTDGPNNTNPMNSSPNPINAMQTNGLPNWGMAVGMGAIIPPHLQGLPGANGSSVSQVSGGSAEGISNSVWGLSPGNPATGNSNSGFSQGNGDTVNSALSAKQNGSSSAVQKEGSGGNAWDSGPPAGPGILAWGRGSGNNGVGNIHSGAWGHPSRSTSNGVNGEWGKPPNQHSNSDINGKGSTGWESPSVTSQNPTVQPGGEHMNSWAKAASSGTTASEGSSDGSGNHNEGSTGREGTGEGRRRDKGIIDQGHIQLPRNDLDPRVLSNTGWGQTPVKQNTAWEFEESPRSERKNDNGTEAWGCAATQASNSGGKNDGSIMNSTNTSSVSGWVNAPPAAVPANTGWGDSNNKAPSGPGVWGDSISSTAVSTAAAAKSGHAWSGAANQEDKSPTWGEPPKPKSQHWGDGQRSNPAWSAGGGDWADSSSVLGHLGDGKKNGSGWDADSNRSGSGWNDTTRSGNSGWGNSTNTKANPGTNWGETLKPGPQQNWASKPQDNNVSNWGGAASVKQTGTGWIGGPVPVKQKDSSEATGWEEPSPPSIRRKMEIDDGTSAWGDPSNYNNKTVNMWDRNNPVIQSSTTTNTTTTTTTTTSNTTHRVETPPPHQAGTQLNRSPLLGPVSSGWGEMPNVHSKTENSWGEPSSPSTLVDNGTAAWGKPPSSGSGWGDHPAEPPVAFGRAGAPVAASALCKPASKSMQEGWGSGGDEMNLSTSQWEDEEGDVWNNAASQESTSSCSSWGNAPKKGLQKGMKTSGKQDEAWIMSRLIKQLTDMGFPREPAEEALKSNNMNLDQAMSALLEKKVDVDKRGLGVTDHNGMAAKPLGCRPPISKESSVDRPTFLDKDGGLVEEPTPSPFLPSPSLKLPLSHSALPSQALGGIASGLGMQNLNSSRQIPSGNLGMFGNSGAAQARTMQQPPQPPVQPLNSSQPSLRAQVPQFLSPQVQAQLLQFAAKNIGLNPALLTSPINPQHMTMLNQLYQLQLAYQRLQIQQQMLQAQRNVSGSMRQQEQQVARTITNLQQQIQQHQRQLAQALLVKQPPPPPPPPHLSLHPSAGKSAMDSFPSHPQTPGLPDLQTKEQQSSPNTFAPYPLAGLNPNMNVNSMDMTGGLSVKDPSQSQSRLPQWTHPNSMDNLPSAASPLEQNPSKHGAIPGGLSIGPPGKSSIDDSYGRYDLIQNSESPASPPVAVPHSWSRAKSDSDKISNGSSINWPPEFHPGVPWKGLQNIDPENDPDVTPGSVPTGPTINTTIQDVNRYLLKSGGSSPPSSQNATLPSSSAWPLSASGYSSSFSSIASAPSVAGKLSDIKSTWSSGPTSHTQASLSHELWKVPRNSTAPTRPPPGLTNPKPSSTWGASPLGWTSSYSSGSAWSTDTSGRTSSWLVLRNLTPQIDGSTLRTLCLQHGPLITFHLNLTQGNAVVRYSSKEEAAKAQKSLHMCVLGNTTILAEFAGEEEVNRFLAQGQALPPTSSWQSSSASSQPRLSAAGSSHGLVRSDAGHWNAPCLGGKGSSELLWGGVPQYSSSLWGPPSADDSRVIGSPTPLTTLLPGDLLSGESL

Variants of: B1
Settings: with pabp1_human PABPC1, P11940
Chain of pabp1_human PABPC1, P11940 (P11940 whole entry): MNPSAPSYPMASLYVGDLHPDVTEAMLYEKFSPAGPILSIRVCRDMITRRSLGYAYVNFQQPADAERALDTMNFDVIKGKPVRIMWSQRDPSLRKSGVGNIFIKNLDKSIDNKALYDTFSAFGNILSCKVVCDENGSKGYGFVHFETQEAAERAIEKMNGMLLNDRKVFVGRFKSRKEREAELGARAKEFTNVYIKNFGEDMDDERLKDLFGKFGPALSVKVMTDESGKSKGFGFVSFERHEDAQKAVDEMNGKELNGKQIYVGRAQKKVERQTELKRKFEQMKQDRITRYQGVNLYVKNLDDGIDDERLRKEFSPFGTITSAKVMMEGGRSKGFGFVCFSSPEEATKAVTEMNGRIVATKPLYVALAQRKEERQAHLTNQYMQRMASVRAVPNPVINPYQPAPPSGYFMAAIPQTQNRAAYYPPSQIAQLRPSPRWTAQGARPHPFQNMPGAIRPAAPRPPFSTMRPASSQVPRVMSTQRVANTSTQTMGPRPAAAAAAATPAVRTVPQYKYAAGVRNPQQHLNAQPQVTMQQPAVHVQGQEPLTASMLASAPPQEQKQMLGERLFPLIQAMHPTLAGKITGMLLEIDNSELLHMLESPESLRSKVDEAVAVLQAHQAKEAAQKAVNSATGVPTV

effect of a mutation on the interaction | Variant
disrupting interaction | F1596A
decreasing interaction | P1593A
decreasing interaction | W1592A
decreasing interaction | P1601A

Variants of: B1
Settings: with pabp1_human PABPC1, P11940
Remark: another data set of the same source

effect of a mutation on the interaction | Variant
decreasing interaction | W1602A
decreasing interaction | G1599A
